From the supplement of paper PMC12042874 come the findings set out here.

± gives the uncertainty stated by the source.

A short description of the data set: amyloid nucleation score (Sup35N fusion, yeast selection) (log enrichment); library NNK2; higher = more nucleation; inactive = no reads after selection. The essentials: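 Three technical output replicates were used for random libraries. Psi-negative yeast expressing peptides of 20 random codons fused to Sup35N were induced with 100 μM copper sulfate for 24 hours and grown 7 days at 30°C on medium lacking adenine and uracil, and input and output plasmid inserts were Illumina-sequenced, excluding sequences with under 100 input reads. The nucleation score is the DiMSum log enrichment of output over input reads, centred on the mode score of non-aggregating sequences.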
LTVRDLVPPPAMANRFLTVI showed an amyloid nucleation score of -0.016 ± 0.44.

In turn, LTYLFVQSSVAWLSLMIH returned an amyloid nucleation score of 0.253 ± 0.6.

As for LVCSCIGHVHGVTH, the amyloid nucleation score was 7.125 ± 0.067.

As to LVDRPGFSVNVD, the amyloid nucleation score is -0.191 ± 0.35.

The substance LVHCLSPRIVATGVPHGMMV gave an amyloid nucleation score of 1.04 ± 0.35.

LVKGRAAERCNFLSWVKSVQ had an amyloid nucleation score of -0.533 ± 0.3.

Turning to LVKVHSISMLINSYLGEFCL, the amyloid nucleation score is 0.045 ± 0.79.

In turn, LVLLVPGKLMCF gave an amyloid nucleation score of 4.12 ± 0.081.

In the case of LVLSGGRV, the amyloid nucleation score stood at 0.184 ± 0.42.

On to LVLYGNVA, for which the amyloid nucleation score amounted to 0.28 ± 0.74.

Consider LVMVCMVSFENHYMLGTEVL, for which the amyloid nucleation score is 2.71 ± 0.14.

On to LVNDHGVSVVSCGTD, for which the amyloid nucleation score came to 0.053 ± 0.79.

Substance LVQRWGWSKPLIAGI gave an amyloid nucleation score of -0.271 ± 0.49.

In the case of LVRMPRGTSFGRCNVCV, the amyloid nucleation score result was “inactive”.

LVRNPAQMSFRPIVHSVCYL gave an amyloid nucleation score of 0.724 ± 0.16.

Substance LVSFGVYMLSSVRKECHSLN yielded an amyloid nucleation score of 0.536 ± 0.49.

Substance LVSNHASYFIQI displayed an amyloid nucleation score of 7.467 ± 0.035.

As to LVTVSVVPSWSAVRPTGMNV, the amyloid nucleation score came out at 0.84 ± 0.46.

Substance LVYDKENIGRLDRRRVWRRQ registered an amyloid nucleation score of 0.767 ± 0.74.

For the substance LVYVT, the amyloid nucleation score was 0.434 ± 0.37.

In turn, LWFKCGHSIQGLVRVTESGS returned an amyloid nucleation score of -0.15 ± 0.27.

As to LWFLVFMDMVRRWRGNHRGE, the amyloid nucleation score is -0.656 ± 1.1.

Turning to LWHESC, the amyloid nucleation score was -0.119 ± 0.33.

For LWITVRATPRLDRS, the amyloid nucleation score was 1.03 ± 0.21.

LWLKEVYRWMIGGTRYL: the amyloid nucleation score was -0.618 ± 0.76.

The substance LWLVSKAYRYLPYSDWKSAL returned an amyloid nucleation score of 0.161 ± 0.77.

Turning to LWMDWS, the amyloid nucleation score is 0.754 ± 0.36.

For the substance LWVLTSRDDVFMVVFFMTPK, the amyloid nucleation score was -0.483 ± 0.5.

With LYCSSLFKVYRGVQTRAKLR, the amyloid nucleation score entry was “inactive”.

Turning to LYDMTCRSSVKGNV, the amyloid nucleation score is -1.19 ± 0.75.

LYENWPCFT: the amyloid nucleation score was -0.199 ± 0.53.

In turn, LYEYHHGFVCQRVCGAIVGR had an amyloid nucleation score of 1.23 ± 0.43.

LYFMCNFLTCSL registered an amyloid nucleation score of 7.893 ± 0.057.

Substance LYFSNPWFMIKSRDMFVCIG had an amyloid nucleation score of 0.51 ± 0.18.

LYFSSTYCLLVGKTDQIDCH: the amyloid nucleation score entry was “inactive”.

In turn, LYGNYDTSYTLIQVISLRNG came in with an amyloid nucleation score of 6.202 ± 0.04.

The substance LYHDEALVWNLRDVSRIYRL had an amyloid nucleation score of 3.59 ± 0.1.

The substance LYKSSQKKPQTLNDFQIAMW displayed an amyloid nucleation score of 0.193 ± 0.65.

Turning to LYLYSWRCNPISP, the amyloid nucleation score result is “inactive”.

For the substance LYPCYYCRAEKVHVRLDFTR, the amyloid nucleation score is -0.517 ± 0.23.

The substance LYREDGNMSDH gave an amyloid nucleation score of 1.82 ± 0.28.

In the case of LYSCWVSCLEGRLVCGPLTH, the amyloid nucleation score was -0.65 ± 0.39.

As for LYSDGVIDMRRLCKVL, the amyloid nucleation score is -0.841 ± 0.62.

On to LYTFGFSFLWKYSRFHV, for which the amyloid nucleation score entry is “inactive”.

For LYVLVLMVCYRYGGKF, the amyloid nucleation score came to 4.38 ± 0.063.

As for LYVVIIPSEAIHVTKSSHGI, the amyloid nucleation score result is “inactive”.

The substance LYVYGGSLNPGLVMFVPCWK displayed an amyloid nucleation score of -0.774 ± 0.76.

Substance LYVYMCIPLDYLSSRVDSKR returned an amyloid nucleation score of 5.67 ± 0.094.

Turning to LYWSLCDFCN, the amyloid nucleation score result is “inactive”.

Regarding MACKGLSLCFVWVLENKRRS, the amyloid nucleation score is 0.454 ± 0.23.

As to MACTFHVLTMGRFWSAWHRM, the amyloid nucleation score turned out to be 0.598 ± 0.29.

Consider MAGWLLNINLLMPIVGDVLQ, for which the amyloid nucleation score was 8.131 ± 0.056.

On to MAMVLWLECTS, for which the amyloid nucleation score amounted to 0.924 ± 0.47.

The substance MASSPSVSIIKLFFGVEGLS had an amyloid nucleation score of -0.681 ± 1.

MASVMLQCHGCPLGKGTARA showed an amyloid nucleation score of 0.879 ± 0.41.

As for MAYGGPFSVLSSWDDADNGY, the amyloid nucleation score is -0.05 ± 0.5.

The substance MCGNWLD yielded an amyloid nucleation score of 3.05 ± 0.055.

MCPLT had an amyloid nucleation score of 0.638 ± 0.17.

Take MCTDFQC: the amyloid nucleation score was determined as 0.475 ± 0.27.

Consider MCVYCVDYWGACRLEILALW, for which the amyloid nucleation score was -0.423 ± 0.41.

Turning to MDCECG, the amyloid nucleation score was found to be 1.03 ± 0.3.

Regarding MDFGVLARSNLYIIYYLCLR, the amyloid nucleation score result is “inactive”.

Consider MDLLPNSGYGLRSDLRVLAE, for which the amyloid nucleation score was determined as 3.5 ± 0.097.

MDLVSSFRLNVCGT showed an amyloid nucleation score of 0.089 ± 0.5.

Substance MDNHVLKFYRNDYKE yielded an amyloid nucleation score of 0.191 ± 0.65.

As to MDWIPLMPTYGIWLPC, the amyloid nucleation score was 0.045 ± 0.41.

Substance MEDHF showed an amyloid nucleation score of 3.69 ± 0.11.

MELRFDCF: the amyloid nucleation score turned out to be 0.089 ± 1.1.

For the substance MEPYRVKAMYPPRVIKVWFT, the amyloid nucleation score was -0.448 ± 0.76.

The substance MERIPVVSDMGRLGFSACRL gave an amyloid nucleation score of 0.821 ± 0.23.

Substance MFERINALFNLQ came in with an amyloid nucleation score of 3.46 ± 0.14.

Consider MFFFYKFMKDKIGN, for which the amyloid nucleation score is 4.37 ± 0.051.

As to MFFNLAI, the amyloid nucleation score entry is “inactive”.

MFKQFVSLLHQGLFLSLSFD showed an amyloid nucleation score of -0.01 ± 0.6.

MFLFGASLRIIRVVLTYELL: the amyloid nucleation score entry was “inactive”.

Turning to MFLNPQPVFDLISFNVVSTP, the amyloid nucleation score worked out at 9.306 ± 0.032.

With MFNACDNRKFCVGVCSDLK, the amyloid nucleation score is 0.036 ± 0.41.

The substance MFSIYSGYIVKQC registered an amyloid nucleation score of 0.336 ± 0.74.

Substance MFSMGEAAAL displayed an amyloid nucleation score of 0.305 ± 0.3.

Regarding MFVGGGSSSTWLGNVWYVGS, the amyloid nucleation score is -0.337 ± 1.1.

The substance MFVGSGRDCTVTVPFRQPTG gave an amyloid nucleation score of 1.86 ± 0.29.

In turn, MFVWVQSRIGKGFGMGFRRW yielded an amyloid nucleation score of -0.307 ± 0.76.

MGCCIYCYSRIDHL: the amyloid nucleation score was 8.743 ± 0.055.

As for MGDSTIEVTLPVG, the amyloid nucleation score was found to be 0.987 ± 0.39.

With MHRLPNNIPTGNQLPLQPSE, the amyloid nucleation score is -0.41 ± 0.48.

For the substance MIASIGLDCEHVM, the amyloid nucleation score was determined as 0.841 ± 0.5.

Turning to MICHMFMG, the amyloid nucleation score entry was “inactive”.

Turning to MIDWGVIV, the amyloid nucleation score is -0.149 ± 0.76.

For MIGDYTSFCMGSGF, the amyloid nucleation score entry is “inactive”.

Substance MIICLEVKTGYST had an amyloid nucleation score of 3.73 ± 0.068.

MILEVSDWLGVVCVIKVWLT: the amyloid nucleation score turned out to be 0.561 ± 0.41.

On to MILNQMYDKFYSRLSSITSR, for which the amyloid nucleation score stood at 1.31 ± 0.66.

On to MIQRFVISSGYRGFYLTLLI, for which the amyloid nucleation score entry was “inactive”.

MISVVRKPPLIISVIRSRWD yielded an amyloid nucleation score of 0.687 ± 0.47.

The substance MITDGGASVGLNYRYS yielded an amyloid nucleation score of -0.524 ± 0.33.

Take MKIYARIMSFLWATVKCVGY: the amyloid nucleation score entry was “inactive”.

Turning to MKRLPDSDIMVVPIVHKINL, the amyloid nucleation score entry is “inactive”.

The substance MKSLLLLCCYSELAYLCGML displayed an amyloid nucleation score of -1.34 ± 0.4.

In the case of MLDGTSCICVVIEA, the amyloid nucleation score was -0.035 ± 0.21.

As to MLGCCPRVSVVPNTV, the amyloid nucleation score is -0.467 ± 0.45.

On to MLIDSWSVAIYICLLLIQVQ, for which the amyloid nucleation score came out at 1.34 ± 0.13.

In the case of MLKSYDKKWWGTMAWSNSSV, the amyloid nucleation score came to 0.711 ± 0.34.

In turn, MLKWWLFTRSSSPGRHCRLD returned an amyloid nucleation score of -0.471 ± 0.54.

Turning to MLLIIVWQILMKLNGWITVL, the amyloid nucleation score result was “inactive”.

MLLPLNYECGVQYS returned an amyloid nucleation score of -0.179 ± 0.37.

MLLRHNEPVLLRAHYYRESA: the amyloid nucleation score is -0.13 ± 0.76.

For the substance MLLYNESNANQLKRGSGRWL, the amyloid nucleation score came to 0.156 ± 0.32.

Consider MLVDVLGC, for which the amyloid nucleation score entry is “inactive”.

MMFNYVFASLGFKRNVHLEC: the amyloid nucleation score entry was “inactive”.

As for MMGWFPRKLES, the amyloid nucleation score is -0.125 ± 0.41.

As to MMVAGLFLGAFFLISTKGVK, the amyloid nucleation score amounted to 4.43 ± 0.064.

For the substance MMVRN, the amyloid nucleation score was determined as 1.22 ± 0.57.

Consider MMYISSGVFWTE, for which the amyloid nucleation score entry was “inactive”.

As for MNEFCRTGCRTFRQRSSCCR, the amyloid nucleation score stood at 0.868 ± 0.15.

As to MNYLCASSGVLVKN, the amyloid nucleation score is -0.055 ± 1.1.

Consider MPCLFVF, for which the amyloid nucleation score was determined as 2.28 ± 0.17.

MPEIREREMYGLVESLEYKK: the amyloid nucleation score was -0.147 ± 0.41.

The substance MPHLVVTNAPGVSIRVGSDW came in with an amyloid nucleation score of -0.888 ± 0.78.

MPLCECHNKGHVDFCDTRTA had an amyloid nucleation score of -0.072 ± 1.1.

In turn, MPWFIQMVHLCWFPEGRTRF yielded an amyloid nucleation score of 4.85 ± 0.071.

In the case of MRFNDTENWGVSDVISSNDF, the amyloid nucleation score result was “inactive”.

MRFRLCNYLLRRVWDLNRGA registered an amyloid nucleation score of -1.18 ± 0.39.

In turn, MRLTTGINF registered an amyloid nucleation score of -1.14 ± 0.76.

As for MRLVSSDDFCV, the amyloid nucleation score was determined as 0.097 ± 0.8.

In turn, MRVDLKLVSAYLKSRFGPMF displayed an amyloid nucleation score of -0.341 ± 0.79.

In the case of MRWIFGHAGPSFSCILKKRP, the amyloid nucleation score result is “inactive”.

For MSFNGCFDRMRREDRYEI, the amyloid nucleation score was determined as 0.16 ± 0.65.

MSGWVAGLHLDVCGVDYAGG came in with an amyloid nucleation score of 1.9 ± 0.29.

For MSKEVVSSGYVIHIRRQRGG, the amyloid nucleation score worked out at 0.82 ± 0.57.

As for MSKGVYIYNIYYLVMSGVPL, the amyloid nucleation score is 4.9 ± 0.063.

As to MSLCGYNYI, the amyloid nucleation score result is “inactive”.

For the substance MSLVSRNSTSKHLNIVFSLI, the amyloid nucleation score stood at 5.057 ± 0.045.

Substance MSMLNRALGILKSTFMINRR registered an amyloid nucleation score of -0.058 ± 0.53.

MSNARRFSMNDSYNIVLCWE registered an amyloid nucleation score of -0.111 ± 0.63.

The substance MSPVCLCCYLPTRVYCKVSG gave an amyloid nucleation score of 5.85 ± 0.084.

Substance MSRSVVESQMVLSDDFWHQG gave an amyloid nucleation score of -0.41 ± 0.22.

Substance MSRWKVHFTMRTSPCIVNEH had an amyloid nucleation score of 1.17 ± 0.45.

In turn, MSRWTKIGNFDNIPSIPLVV gave an amyloid nucleation score of -0.228 ± 0.36.

Take MSSCLRL: the amyloid nucleation score came out at 4.51 ± 0.056.

As to MSSSVHLGIFITQCVKTRQL, the amyloid nucleation score worked out at 2.25 ± 0.22.
